From the Human Domainome abundance scans (Beltran et al. 2025)
± gives the uncertainty stated by the source.

B1: Storkhead-box protein 2, residues 64 to 141; numbered along this chain, Q9P2F5 (parent)
chain: SPISQSQFIPLGEILCLAISAMNSARKPVTQEALMEHLTTCFPGVPTPSQEILRHTLNTLVRERKIYPTPDGYFIVTP

Variants of: B1
Test: abundance fitness (aPCA) (normalised: wild type 0, dead -1); higher = more abundant; growth selection in yeast, the domain comes from the species named
Details: Homo sapiens

Q: Which abundance fitness does the source give for SPISQSQFIPLGEILCLAISAMNSARKPVTQELLMEHLTTCFPGVPTPSQEILRHTLNTLVRERKIYPTPDGYFIVTP [A33L] here?
A: The abundance fitness was -0.061 ± 0.032.

Q: For SPISQSQFIPLGEILCLAISAMNSARKPVTQEYLMEHLTTCFPGVPTPSQEILRHTLNTLVRERKIYPTPDGYFIVTP [A33Y], which abundance fitness is on record?
A: Its abundance fitness is -0.167 ± 0.11.

Q: For SPISQSQFIPLGEILCLGISAMNSARKPVTQEALMEHLTTCFPGVPTPSQEILRHTLNTLVRERKIYPTPDGYFIVTP [A18G], which abundance fitness is on record?
A: Its abundance fitness is -0.095 ± 0.048.

Q: Which abundance fitness does the source give for SPISQSQFIFLGEILCLAISAMNSARKPVTQEALMEHLTTCFPGVPTPSQEILRHTLNTLVRERKIYPTPDGYFIVTP [P10F] here?
A: The abundance fitness was -0.04 ± 0.093.

Q: For SPISQSQFIILGEILCLAISAMNSARKPVTQEALMEHLTTCFPGVPTPSQEILRHTLNTLVRERKIYPTPDGYFIVTP [P10I], which abundance fitness is on record?
A: Its abundance fitness is 0.302 ± 0.4.

Q: For SPISQSQFITLGEILCLAISAMNSARKPVTQEALMEHLTTCFPGVPTPSQEILRHTLNTLVRERKIYPTPDGYFIVTP [P10T], which abundance fitness is on record?
A: The abundance fitness was -0.024 ± 0.11.

Q: For SPISQSQFIPLGEILCLAISAMNSARKPVTQEALMEHLTTCFPGVPTPSQEILRHTLNTLVREGKIYPTPDGYFIVTP [R64G], which abundance fitness is on record?
A: Its abundance fitness is 0.031 ± 0.034.

Q: With SPISQSQFIPLGEILCLAISAMNSARKPVTQEALMEHLTTCFPGVPTPSQEILRHTLNTLVRERKIYPTPCGYFIVTP [D71C] as the variant, how does the abundance fitness read?
A: The abundance fitness was -0.154 ± 0.061.

Q: For SPISQSQFIPLGEILCLAISAMNSARKPVTQEALMEHLTTCFPGVPTPSQEILRHTLNTLVRERKIYPTPAGYFIVTP [D71A], which abundance fitness is on record?
A: Its abundance fitness is -0.002 ± 0.049.

Q: For SPISQSQFIPLGEILCLAISAMNSARKPVTQEALMEHLTTCFPGVPTPSQEILRHTLNTLVRERKIYPTPVGYFIVTP [D71V], which abundance fitness is on record?
A: Its abundance fitness is -0.022 ± 0.063.

Q: With SPISQSQFIPLGEILCLAISAMNSARKPVTQEALMEHLTTCFPGVPTPSQEILRHTLNTLVRERKIYPTPEGYFIVTP [D71E] as the variant, how does the abundance fitness read?
A: The abundance fitness was -0.005 ± 0.069.

Q: With SPISQSQFIPLGEILCLAISAMNSARKPVTQEALMEHLTTCFPGVPTPSQEIVRHTLNTLVRERKIYPTPDGYFIVTP [L53V] as the variant, how does the abundance fitness read?
A: The abundance fitness was -0.003 ± 0.047.

Q: With SPISQSQFIPLGEILCLAISAMNSARKPVTQEALMEHLTTCFPGVPTPSQEIYRHTLNTLVRERKIYPTPDGYFIVTP [L53Y] as the variant, how does the abundance fitness read?
A: The abundance fitness was -0.108 ± 0.079.

Q: For SPISQSQFIPLGEILCLAISAMNSARKPVTQEALMEHLTTCFPGVPTPSQEIARHTLNTLVRERKIYPTPDGYFIVTP [L53A], which abundance fitness is on record?
A: Its abundance fitness is -0.124 ± 0.058.

Q: For SPISQSQFIPLGEILCLAISAMNSARKPVTQEALMEHLTTCFFGVPTPSQEILRHTLNTLVRERKIYPTPDGYFIVTP [P43F], which abundance fitness is on record?
A: The abundance fitness was -0.184 ± 0.093.

Q: With SPISQSQFIPLGEILCLAISAMNSARKPVTQEALMEHLRTCFPGVPTPSQEILRHTLNTLVRERKIYPTPDGYFIVTP [T39R] as the variant, how does the abundance fitness read?
A: Its abundance fitness is 0.016 ± 0.042.

Q: With SPISQSQFIPLGEILCLAISAMNSARKPVTQEALMEHLYTCFPGVPTPSQEILRHTLNTLVRERKIYPTPDGYFIVTP [T39Y] as the variant, how does the abundance fitness read?
A: The abundance fitness was 0.024 ± 0.11.

Q: With SPISQSQFIPLGEILCLAISAMNSARKNVTQEALMEHLTTCFPGVPTPSQEILRHTLNTLVRERKIYPTPDGYFIVTP [P28N] as the variant, how does the abundance fitness read?
A: Its abundance fitness is -0.024 ± 0.13.

Q: With HPISQSQFIPLGEILCLAISAMNSARKPVTQEALMEHLTTCFPGVPTPSQEILRHTLNTLVRERKIYPTPDGYFIVTP [S1H] as the variant, how does the abundance fitness read?
A: Its abundance fitness is -0.103 ± 0.2.

Q: With SPISQSQFIPLGEILCLAISAMNSARKPVTQEALMEHLTTCFPGVPTPSQEILRHTLPTLVRERKIYPTPDGYFIVTP [N58P] as the variant, how does the abundance fitness read?
A: The abundance fitness was -0.678 ± 0.074.

Q: For SPISQSQFIPFGEILCLAISAMNSARKPVTQEALMEHLTTCFPGVPTPSQEILRHTLNTLVRERKIYPTPDGYFIVTP [L11F], which abundance fitness is on record?
A: The abundance fitness was 0.054 ± 0.12.

Q: Which abundance fitness does the source give for SPISQSQFIPPGEILCLAISAMNSARKPVTQEALMEHLTTCFPGVPTPSQEILRHTLNTLVRERKIYPTPDGYFIVTP [L11P] here?
A: Its abundance fitness is -0.299 ± 0.074.

Q: Which abundance fitness does the source give for SPISQSQFIPEGEILCLAISAMNSARKPVTQEALMEHLTTCFPGVPTPSQEILRHTLNTLVRERKIYPTPDGYFIVTP [L11E] here?
A: Its abundance fitness is -0.325 ± 0.091.

Q: For SPISQSQFIPLGEILALAISAMNSARKPVTQEALMEHLTTCFPGVPTPSQEILRHTLNTLVRERKIYPTPDGYFIVTP [C16A], which abundance fitness is on record?
A: Its abundance fitness is -0.197 ± 0.069.

Q: With SPISQSQFIPLGEILCLAISAMNSARKPVTQEALMEHLTTCFPGVPRPSQEILRHTLNTLVRERKIYPTPDGYFIVTP [T47R] as the variant, how does the abundance fitness read?
A: The abundance fitness was -0.018 ± 0.032.

Q: With SPISQSQFIPLGEILCLAISAMNSARKPVTQEALMEHLTTCFPGVPTPSQEILRHTLNTLVRERKIYPTPDGMFIVTP [Y73M] as the variant, how does the abundance fitness read?
A: The abundance fitness was -0.108 ± 0.072.

Q: With SPISQSQFIPLGEILCLAISAMNSARKPVTQEALMEHLTTCFPGVPTASQEILRHTLNTLVRERKIYPTPDGYFIVTP [P48A] as the variant, how does the abundance fitness read?
A: The abundance fitness was -0.186 ± 0.044.

Q: For SPISQSQFIPLGEILCLAISAMNSARKPVTQEALMEHLTTCFPGVPTISQEILRHTLNTLVRERKIYPTPDGYFIVTP [P48I], which abundance fitness is on record?
A: The abundance fitness was -0.016 ± 0.069.

Q: With SPISQSQFIPLGEILCLAISAMASARKPVTQEALMEHLTTCFPGVPTPSQEILRHTLNTLVRERKIYPTPDGYFIVTP [N23A] as the variant, how does the abundance fitness read?
A: Its abundance fitness is -0.156 ± 0.052.

Q: Which abundance fitness does the source give for SPISQSQFIPLGEILCLAISAMNSARKPVTQEALMEHLTTCFPGVPTPSQEILRHTLNTLVRERKIYPTPDTYFIVTP [G72T] here?
A: Its abundance fitness is -0.132 ± 0.095.

Q: With SPISQSQFIPLGEILCLAISAMNSARKPVTQEALMEHLTTCFPGVPTPSQEILRHTLNTLVRERKIYPTPDDYFIVTP [G72D] as the variant, how does the abundance fitness read?
A: Its abundance fitness is -0.033 ± 0.11.

Q: With SPISQSQFIPLGETLCLAISAMNSARKPVTQEALMEHLTTCFPGVPTPSQEILRHTLNTLVRERKIYPTPDGYFIVTP [I14T] as the variant, how does the abundance fitness read?
A: The abundance fitness was -0.034 ± 0.063.

Q: Which abundance fitness does the source give for SPISQSQFIPLGEILCLAISAMNSARKPVTQEALMEHLTTCFPGVPTPSQEILRHTLNTLVRERKIYPTPDGYFLVTP [I75L] here?
A: Its abundance fitness is -0.017 ± 0.039.

Q: Which abundance fitness does the source give for SPISQSQFIPLGEILCLAISAMNSARKPVTQEALMEHLTKCFPGVPTPSQEILRHTLNTLVRERKIYPTPDGYFIVTP [T40K] here?
A: Its abundance fitness is -0.042 ± 0.063.

Q: With SPISQSQFIPLGEILCLAISAMNSARKPVTQEALMEHLTCCFPGVPTPSQEILRHTLNTLVRERKIYPTPDGYFIVTP [T40C] as the variant, how does the abundance fitness read?
A: Its abundance fitness is 0.002 ± 0.078.
